Substitutions are numbered along the chain they refer to. Blank lines part the entries; values can stand above or below the binder they belong to.
Legend:
[1] = target: T1, human Bcl-xL, full length, wild type (human, UniProt Q07817-1 1-233); assay: HDX-MS; conditions Bcl-xL; Bcl-xL + LUVs; Bcl-xL + LUVs + cBid; cBid; proteins (340 pmol) pre-incubated with LUVs 1 h at 37 °C, centrifuged at 20'000 x g, the pellet used for deuterium labelling; conditions: both partners purified
T1 construct: human Bcl-xL, full length with the C-terminal hydrophobic helix α9; also called Bcl-xL wt; unlabeled wild type Bcl-xL; source: E. coli, purified from the soluble fraction (chitin resin, anion exchange, Superdex 200)

[2] = target: T1, human Bcl-xL, full length, wild type; assay: co-sedimentation; spin-labeled protein incubated with LUVs alone or with the unlabeled partner; supernatant and pellet fractions quantified by room temperature continuous wave EPR (spin counting); conditions: both partners purified

T1 sequence (Q07817 whole entry): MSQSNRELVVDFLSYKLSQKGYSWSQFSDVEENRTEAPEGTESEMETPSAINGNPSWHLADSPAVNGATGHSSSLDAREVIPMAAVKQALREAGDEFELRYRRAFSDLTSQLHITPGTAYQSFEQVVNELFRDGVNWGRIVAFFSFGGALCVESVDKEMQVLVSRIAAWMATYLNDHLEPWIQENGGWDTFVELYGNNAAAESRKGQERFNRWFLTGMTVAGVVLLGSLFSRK

binding result [1]: binds
B1: cBid (mouse Bid cleaved by Caspase 8), wild type (complex)
chain 1: MDSEVSNGSGLGAEHITDLLVFGFLQSSGCTRQELEVLGRELPVQAYWEADLEDELQTD
chain 2: GSQASRSFNQGRIEPDSESQEEIIHNIARHLAQIGDEMDHNIQPTLVRQLAAQFMNGSLSEEDKRNCLAKALDEVKTAFPRDMENDKAMLIMTMLLAKKVASHAPSLLRDVFHTTVNFINQNLFSYVRNLVRNEMD
notes: also called cBid wt; cBidWT; source: E. coli, purified from the soluble fraction (Ni-NTA), cleaved with Caspase 8, purified again with Ni-NTA; not shown: His tag (on Bid before cleavage)

binding result [2]: binds
B2: cBid spin-labeled at the natural cysteine 126 (complex, mouse)
chain 1: B1 chain 1 with C30S
chain 2: B1 chain 2
modifications: MTSL spin label on cysteine 126
notes: p7 fragment of mouse Bid; natural cysteine C30 replaced by serine (singly labeled variant); tBid fragment of mouse Bid with its natural cysteine C126; source: E. coli, purified (Ni-NTA), cleaved with Caspase 8, purified again with Ni-NTA, spin-labeled with MTSL; not shown: His tag (on Bid before cleavage)

Source: doi:10.1101/2025.08.31.673340, “Structural and dynamic basis of indirect apoptosis inhibition by Bcl-xL: a case study with Bid” (bioRxiv, 2025)
